Measured values published in the supplement of paper PMC7877785.
± gives the uncertainty stated by the source.

Assay: self-splicing fitness, log relative to wild type (ln ratio); higher = more splicing; Tetrahymena group I intron in knt gene, E. coli kanamycin selection, DiMSum; sequences stand for … in CUCUCU…GGAGGGAAAAGUUAUCAGGCAUGCACCUGGUAGCUAGUCUUUAAACCAAUAGAUUGCAUCGGUUUAAAAGGCAAGACCGUCAAAUUGCGGGAAAGGGGUCAACAGCCGUUCAGUACCAAGUCUCAGGGGAAACUUUGAGAUGGCCUUGCAAAGGGUAUGGUAAUAAGCUGACGGACAUGGUCCUAACCACGCAGCCAAGUCCUAAGUCAACAGAUCUUCUGUUGAUAUGGAUGCAGUUCACAGACUAAAUGUCGGUCGGGGAAGAUGUAUUCUUCUCAUAAGAUAUAGUCGGACCUCUCCUUAAUGGGAGCUAGCGGAUGAAGUGAUGCAACACUGGAGCCGCUGGGAACUAAUUUGUAUGCGAAAGUAUAUUGAUUAGUUUUGGAGUACUCGUGGUCG
In short: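 Six replicate transformations of E. coli BL21(DE3) with a pET-22b(+) library were grown overnight at 37°C or 30°C. The library randomised all eight P1ex-region intron nucleotides, the intron lying in the knt kanamycin-resistance gene, and plates were LB agar with or without 25 μg/mL kanamycin plus 100 μg/mL carbenicillin, 50 μM IPTG and 0.2% rhamnose. Pooled colonies were amplicon-sequenced on an Illumina HiSeq 2500, and fitness is the DiMSum error-weighted combination of wild-type-normalised replicate fold changes, kanamycin versus none.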

Sequence | self-splicing fitness (ln) (30 °C) | self-splicing fitness (ln) (37 °C)
CAGAAGCAAUAUUACGUGCA | -2.49 ± 0.14 | -1.75 ± 0.14
CACGAGCAAUAUUACGUUAG | -2.94 ± 0.16 | -2.64 ± 0.18
GGGCAGCAAUAUUACGCAUC | -2.25 ± 0.41 | -0.733 ± 0.2
CAAGAGCAAUAUUACGAAUG | -2.34 ± 0.09 | -1.79 ± 0.14
AGCCAGCAAUAUUACGACGU | -0.356 ± 0.068 | -0.487 ± 0.085
AUGCAGCAAUAUUACGGGAA | -2.83 ± 0.16 | -1.92 ± 0.14
AUCCAGCAAUAUUACGUGGG | -2.58 ± 0.1 | -3.5 ± 0.13
AAGAAGCAAUAUUACGUUCC | -1.29 ± 0.14 | 0.0973 ± 0.19
AUUCAGCAAUAUUACGAUAC | -1.17 ± 0.097 | 0.368 ± 0.11
GUUUAGCAAUAUUACGAAAA | -1.78 ± 0.29 | -0.97 ± 0.25
ACUAAGCAAUAUUACGCAGA | -1.89 ± 0.092 | -1.5 ± 0.083
GGUUAGCAAUAUUACGUGUA | -1.7 ± 0.13 | -0.817 ± 0.1
ACAUAGCAAUAUUACGAGUU | -3.28 ± 0.18 | -2.28 ± 0.2
CUCCAGCAAUAUUACGUGUC | -3.56 ± 0.22 | -2.55 ± 0.23
GUCAAGCAAUAUUACGUCUU | -2.96 ± 0.071 | -1.58 ± 0.066
AAUCAGCAAUAUUACGGCCA | -0.515 ± 0.11 | -0.146 ± 0.12
ACUGAGCAAUAUUACGAAAG | -2.67 ± 0.15 | -1.73 ± 0.18
GUGUAGCAAUAUUACGACGA | -0.571 ± 0.14 | -0.584 ± 0.16
CCAGAGCAAUAUUACGAUCG | -0.986 ± 0.11 | -0.589 ± 0.14

Sequence | self-splicing fitness (ln) (30 °C) | self-splicing fitness (ln) (37 °C)
AGUGAGCAAUAUUACGGAUC | -2.42 ± 0.25 | -1.25 ± 0.34
CGCUAGCAAUAUUACGCAGG | -3.17 ± 0.18 | -1.83 ± 0.23
AACGAGCAAUAUUACGGUCC |  | -1.13 ± 0.31
GCGAAGCAAUAUUACGCUCA | -1.48 ± 0.28 | -2.25 ± 0.33
AUACAGCAAUAUUACGGACC | -0.965 ± 0.21 | -1.07 ± 0.26
GGCGAGCAAUAUUACGUCGU | -3.86 ± 0.22 | -2.3 ± 0.32
GCACAGCAAUAUUACGCACU | -0.263 ± 0.06 | 0.324 ± 0.077
UGAUAGCAAUAUUACGGGAU | -2.03 ± 0.17 | -2.15 ± 0.26
CAUCAGCAAUAUUACGCAUU | -1.36 ± 0.079 | -0.544 ± 0.1
CCGCAGCAAUAUUACGGAAU | -4.02 ± 0.25 | -2.89 ± 0.34
AGACAGCAAUAUUACGCGCA | -0.449 ± 0.084 | 0.312 ± 0.13
CGAUAGCAAUAUUACGCAGG | -1.6 ± 0.092 | -1.25 ± 0.1
CUUCAGCAAUAUUACGUAAU | -2.76 ± 0.13 | -0.639 ± 0.1
GUGGAGCAAUAUUACGGGAA | -2.15 ± 0.28 | -3.23 ± 0.35
ACUAAGCAAUAUUACGUUAG | -2.59 ± 0.13 | -2.1 ± 0.17
AGAAAGCAAUAUUACGUCGA | -0.974 ± 0.069 | -0.242 ± 0.08
UCAAAGCAAUAUUACGUUCU | -3.76 ± 0.26 | -2.87 ± 0.22
GACAAGCAAUAUUACGGGAA | -2.12 ± 0.097 | -1.36 ± 0.12
UCUAAGCAAUAUUACGCCCC |  | -1.6 ± 0.44
